In publication PMC4172209 (2014):
Where no end group is shown, it is not given here. The star is where a group is joined. FITC = O=C1OC2(c3ccc(O)cc3Oc3cc(O)ccc32)c2ccc(NC(=S)*)cc21; βAla = NCCC(=O)O

T1: PTH1R C-terminal peptide (FITC-PTH1Rct) (Homo sapiens)
T1 chain: {FITC-βAla}-PERPPALLQEEWETVM

B1: NHERF1 PDZ1 1-140 (protein)
chain: MSADAAAGAPLPRLCCLEKGPNGYGFHLHGEKGKLGQYIRLVEPGSPAEKAGLLAGDRLVEVNGENVEKETHQQVVSRIRAALNAVRLLVVDPETDEQLQKLGVQVREELLRAQEAPGQAEPPAAAEVQGAGNENEPREA

How the values were obtained:
[1] = molecular target: NHERF1 PDZ1 (Homo sapiens) (UniProt O14745); conditions: cited from earlier work
[2] = molecular target: T1, PTH1R C-terminal peptide (FITC-PTH1Rct); assay: fluorescence polarization

Row | Molecule | Kd [1] [µM] | Kd [2] [µM]
1 | PTH1R C-terminal peptide C-terminus (from UniProt Q03431) | 11 | 
2 | B1 |  | 19
